Measured values taken from patent US20170190773A1 (IGYXOS, published 2017).

B1: CF12 monoclonal antibody (antibody, IgM, V domains shown)
VH: QGQMQQSGAELVKPGASVKLSCKTSGFTFSSSYISWLKQKPGQSLEWIAWIYAGTGGTSYNQKFTGKAQLTVDTSSSTAYMQFSSLTTEDSAIYYCARHGSYFDYWGQGTTLTVSS
VL: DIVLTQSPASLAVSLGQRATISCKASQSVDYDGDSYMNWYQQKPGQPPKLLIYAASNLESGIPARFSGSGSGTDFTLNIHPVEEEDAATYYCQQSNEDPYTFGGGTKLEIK
B2: CF12 scFv (scFv)
scFv: QVQLQQSGGAELVKPGASVKLSCKTSGFTFSSSYISWLKQKPGQSLEWIAWIYAGTGGTSYNQKFTGKAQLTVDTSSSTAYMQFSSLTTEDSAIYYCARHGSYFDYWGQGTTLTVSSGGGGSGGGGSGGGGSDIQMTQTPASLAVSLGQRATISCKASQSVDYDGDSYMNWYQQKPGQPPKLLIYAASNLESGIPARFSGSGSGTDFTLNIHPVEEEDAATYYCQQSNEDPYTFGGGTKLEIKHHHHHH
notes: Made in E. coli periplasm; also called scFv derived from the CF12 antibody

Tests used:
[1] = target: human FSH (preparation not named) (human, UniProt P01215 25-116; P01225 19-129); assay: cell-based or functional assay
ovine FSH [2] = target: T1, ovine FSH (ovine, UniProt P01218 25-120; P01227 20-129); assay: cell-based or functional assay
porcine FSH = porcine FSH (porcine, UniProt P01219 25-120; P01228 21-129); assay: cell-based or functional assay
[3] = target: human FSH Gonal-F (recombinant human FSH, Merck Serono) (human, UniProt P01215 25-116; P01225 19-129); assay: cell-based or functional assay
porcine LH [4] = target: T2, porcine LH (porcine, UniProt P01219 25-120; P01232 21-141); assay: ELISA; hormone adsorbed on the plate (10 µg/ml), scFv at 200 µg/ml, anti-His Tag HRP
Protocol: (§1) Each hormone evaluated was prepared at the concentration of 10 μg/ml in a 0.1 M sodium carbonate buffer, pH 9.6, and distributed in a proportion of 100 μl per well on an ELISA plate. The adsorption time was 18 hours at +4° C. After five washes, the wells were treated with 100 µl of PBS supplemented with 0.1% Tween and 1% BSA for 45 minutes at 37° C., then each antibody or scFv was distributed in a proportion of 100 μl/well and incubated for one hour at 37° C. On each hormone evaluated, the antibody and the scFv were distributed at various concentrations according to a range of 10 to 250 μg/ml for the antibodies and of 10 to 150 or 200 μg/ml for the scFv.
(§2) After five washes, a secondary antibody coupled to peroxidase (HRP) was distributed in a proportion of 100 µl/well and incubated for one hour at 37° C. Depending on the isotype of the monoclonal antibody studied, the secondary antibody was an anti-IgG1 HRP (Ref. 115-035-205, Jackson ImmunoResearch Laboratories Inc), an anti-IgG2a HRP (Ref. 115-035-206, Jackson Laboratories) or an anti-IgM HRP (Ref. 115-035-075, Jackson Laboratories). For the scFvs, an anti-His Tag HRP (Ref. R93125 Life Technologies, France) was used. […] After the reaction had been stopped with 1 M H₂SO₄ (50 μl/well), the strength of the colored reaction (optical density) was measured using a spectrophotometer for ELISA plates.

bovine LH [5] = target: T3, bovine LH (bovine, UniProt P01217 25-120; P04651 21-141); assay: as above
Protocol: as §1, §2

[6] = target: T4, equine chorionic gonadotropin (equine, UniProt P01220 25-120; P08751 21-169); assay: as above
T4 construct: also called eCG
Protocol: as §1, §2

[7] = target: T5, hCG Chorulon (human chorionic gonadotropin extracted from urine of pregnant women, MSD) (human, UniProt P01215 25-116; P0DN86 21-165); assay: as above
T5 construct: Commercial urinary hCG, veterinary preparation
Protocol: as §1, §2

[8] = target: T6, hCG Endo 5000 (purified human chorionic gonadotropin, Schering-Plough) (human, UniProt P01215 25-116; P0DN86 21-165); assay: as above
T6 construct: Commercial purified hCG
Protocol: as §1, §2

ovine LH [9] = target: T7, ovine LH (ovine, UniProt P01218 25-120; P01231 21-141); assay: as above
Protocol: as §1, §2

porcine LH [10] = target: T2, porcine LH; assay: ELISA saturation binding on adsorbed hormone; Kd estimated with GraphPad Prism 'One site-Specific binding'
Protocol: as §1, §2
(§3) An estimation of the dissociation constant Kd of the scFv, with respect to the various FSH, LH and CG studied, was calculated on GraphPad Prism (GraphPad Software Inc., San Diego, Calif., USA, version 5) using the “One site—Specific binding” function in a saturation binding model (“saturation binding experiment model”, GraphPad PRISM software).

bovine LH [11] = target: T3, bovine LH; assay: as above
Protocol: as §1, §2, §3

[12] = target: T4, equine chorionic gonadotropin; assay: as above
Protocol: as §1, §2, §3

[13] = target: T5, hCG Chorulon (human chorionic …); assay: as above
Protocol: as §1, §2, §3

[14] = target: T6, hCG Endo 5000 (purified human chorionic …); assay: as above
Protocol: as §1, §2, §3

ovine FSH [15] = target: T1, ovine FSH; assay: as above
Protocol: as §1, §2, §3

[16] = target: T8, hMG Menopur (human menopausal gonadotropin, Ferring Pharmaceuticals) (human); assay: as above
T8 construct: numbers for it cannot be laid to one hormone
Protocol: as §1, §2, §3

ovine LH [17] = target: T7, ovine LH; assay: as above
Protocol: as §1, §2, §3

T4 sequence (P01220 25-120, chain 1 of 2): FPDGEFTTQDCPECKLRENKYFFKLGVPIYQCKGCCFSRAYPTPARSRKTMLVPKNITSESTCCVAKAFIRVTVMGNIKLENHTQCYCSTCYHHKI
T4 sequence (P08751 21-169, chain 2 of 2): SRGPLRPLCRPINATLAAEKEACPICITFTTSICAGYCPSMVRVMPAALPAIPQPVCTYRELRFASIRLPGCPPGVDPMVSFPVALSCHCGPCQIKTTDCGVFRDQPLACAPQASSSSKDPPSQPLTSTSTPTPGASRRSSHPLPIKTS
T5 sequence (P01215 25-116, chain 1 of 2, other chains not shown): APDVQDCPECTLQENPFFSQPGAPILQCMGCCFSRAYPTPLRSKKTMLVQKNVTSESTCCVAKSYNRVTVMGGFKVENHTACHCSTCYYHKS
T6 sequence (P01215 25-116, chain 1 of 2, other chains not shown): as above
Chain of human FSH (preparation not named) (P01215 25-116, chain 1 of 2): as the sequence (P01215 25-116, chain 1 of 2, other chains not shown) above
Chain of human FSH (preparation not named) (P01225 19-129, chain 2 of 2): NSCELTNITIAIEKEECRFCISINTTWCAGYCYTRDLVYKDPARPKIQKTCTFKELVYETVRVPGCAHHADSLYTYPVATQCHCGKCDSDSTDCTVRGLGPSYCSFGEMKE
Chain of human FSH Gonal-F (recombinant human FSH, Merck Serono) (P01215 25-116, chain 1 of 2): as the sequence (P01215 25-116, chain 1 of 2, other chains not shown) above
Chain of human FSH Gonal-F (recombinant human FSH, Merck Serono) (P01225 19-129, chain 2 of 2): as the sequence (P01225 19-129, chain 2 of 2) above

Row | Binder | cAMP secretion of bovine granulosa cells, hFSH 3-25 ng/ml pre-complexed with 0.1 µg/ml CF12 against hFSH alone [1] | increase in the bioactivity of the hormone, LogEC50, GloSensor HEK 293 hFSHR cells (ovine FSH [2]) | increase in the bioactivity of the hormone, LogEC50, GloSensor HEK 293 hFSHR cells (porcine FSH) | increase in the bioactivity of the hormone, LogEC50 units, GloSensor HEK 293 hFSHR cells [3] | optical density (porcine LH [4]) | optical density (bovine LH [5]) | optical density [6] | optical density [7] | optical density [8] | optical density (ovine LH [9]) | Kd (porcine LH [10]) | Kd (bovine LH [11]) | Kd [12] | Kd [13] | Kd [14] | Kd (ovine FSH [15]) | Kd [16] | Kd (ovine LH [17])
1 | B1 | 2.5 fold | 1.06 LogEC50 | 0.717 LogEC50 | 0.7 LogEC50 units |  |  |  |  |  |  |  |  |  |  |  |  |  | 
2 | B2 |  |  |  |  | 2.2 optical density units | 2.2 optical density units | 0.6 optical density units | 0.35 optical density units | 0.38 optical density units | 2 optical density units | 4.73 µM | 5.03 µM | 6.12 µM | 5.07 µM | 6.24 µM | 3.78 µM | 14 µM | 5.81 µM
